test: soluble on expression in E. coli; label from the status in PepcDB or PDB records

Sequence | soluble on expression in E. coli
MMKFDWNNPYPSTRIPVFARNVVATSHPLAAQAGLRILALGGNAADAAVASAATLALVEPASNGLGSDCFALVWDGARLHGLNASGTAPAAWSPGYFQRKHQGAIPLRGWDSVTIPGCVAGWASLHDKLGSLPFADVLAPAIEYAERGFAVPPTVQRRWADQVDPLRSLPGFAEHFLPHGRAPEVGEHFVLAGAAATLRRIAASGGRDFYEGETAQKLVAHAQAHEAALTLGDLRDYAPQWVEPISQAYRGHALHQLPPNGQGLAALIALGIVEHFDLASRPAEHPDTQHILIEAMKLAFADVHAHVADAAHIRIRVEQLLDPAYLAERARLIDLRRARVYNAAQAPQGGTVYLACADRNGMMVSFTQSNYMGFGSGIVVPGTGISLQNRGCCFSMDPDHPNVVGGGKRPFHTGIPAFLTQDGAPLMSFGIMGGNMQPQGHLQALVRMLDYRQQPQAACDAPRWKWNRGLSVDIEAAMPAQVTDALRARGHIVEVAAPADKDFGSGQFIWRLGDPAVDGYVAASDSRRDGLAAGFLEHHHHHH | not soluble
SLIENSHVKKDDIWPSGGQMTVKDLTAKYTEGGNAILENISFSISPGQRVGLLGRTGSGKSTLLSAFLRLLNTEGEIQIDGVSWDSITLEQWRKAFGVIPQKVFIFSGTFRKNLDPYEQWSDQEIWKVADEVGLRSVIEQFPGKLDFVLVDGGCVLSHGHKQLMCLARSVLSKAKILLLDEPSAHLDPVTYQIIRRTLKQAFADCTVILCEARIEAMLECDQFLVIEENKVRQYDSILELYHYPADRFVAGFIGSPKMNFLPVKVTATAIDQVQVELPMPNRQQVWLPVESRDVQVGANMSLGIRPEHLLPSDIADVILEGEVQVVEQLGNETQIHIQIPSIRQNLVYRQNRVVLVEEGATFAIGLPPERCHLFREDGTACRRLHKEPGV | soluble
MKRCDLHIHTVPSVSDREFTYDKEILSDYVAKTKLDVIAITNHNLFDYAQFQEIKDILPQIVVLPGIEVDLEDGHILVIANNDDRTLFDFNSKCEEIKNLIKSEADNITYDRFVGIFGDLSKYLLIPHYEKEPKLRKDILEKLGRNIIAGEVSSVKKFIYMEKERAGLTPVYFSDFRIEKGITPDKYPVSHTFFDVDEVNIKTLKLCLMDKTKVSLTSEEGIKLFPIFPNGQKLSTGLNIMYGKRSTGKTFTLDAIASRFNGKAKYIKQFELLNTNRNDSEQFESDMKVRQEESAENYLREFSDVVTDMLKTCSSDEDDIKLQKYLDAVKSSAQQSNVNDVFSKSKLFNESDFKERSCDEIKELINATQTLLESQLYKKIINKHLSEISLKALLKDLIELYLEGNAANQYVKEVNNMIKMVKESLQLKSAAPRIPDIDLYQYFINKKKREVFAQIAMSVKKSRTISTEKAGHFTVSVSARPFMNATDLKTVRLTQVSLTNAFKKYENPVQYLNELKAAGVEINRIYKLFAAIDYKILNSSGLPVSGGERSEFNFLQKIKDAILCDILIIDEPESSFDNIFLKNEVNKFIKEMAENMPVIISTHNNTIGSSIKPDYILYTEKKMEADGAHFKIYSGYPTAKELRDVDGNTIENYEITLNSLEAGEQAYSERKDIYETLKN | not soluble
ENIEVHMLNKGAEGAMVFEPAYIKANPGDTVTFIPVDKGHNVESIKDMIPEGAEKFKSKINENYVLTVTQPGAYLVKCTIHYAMGMIALIAVGDSPANLDQIVSAKKPKIVQERLEKVIASAK | soluble
MTESSLDLGVIGNCSFGALVDRQARVVWSCLPAFDGDPAFCSLLSPKGEGGDFAVELEDFESSEQHYLPNTAVLRTVLRDSKGGEVEVIDFAPRWRNNGRFYRPVSIIRQIRPLAGNPRIVVRARPLADWGGRLEHHHHHH | not soluble
MSLDSFLDIQRKKADADSKFIDCNGFRVHYKRYGSGKPPFIVLLHGSFLSIRSWRDVAVPLAENATVLAFDRPAFGLTSRPVPSRSNAARYSPEAQSDLVVALMDKLGMDRAVIVGNSTGGTLALLTALRHPRRVQGLVLVGAMIYSGYANSEVPAVMKPFMKAMSPVFSRLMKVIITKLYDKNIRGFWHVKSRLSDETLAAFRNDFMVGDWSRGFWELFLETHRLYFNRRVSSAWAPSLVVTGEHDLTVKTEESFRLARELPRAELLVIPDCAHLPQEEQPAAFVAGVKKFVEKLVEGHHHHHH | soluble
MLRRKPTRLELKLDDTEEFESVKKELESRKKQRDEVDVVGVATSSEMSGAAGGTADGKTREQMIHERIGYKPHPKPNTLPSLFGNLQF | soluble
MGSDKIHHHHHHMINEQRLLNTFLELVQIDSETGNESTIQPILKEKFIALGLDVKEDEAAKHPKLGANNLVCTMNSTIEEGEVPKLYLTSHMDTVVPAINVKPIVKDDGYIYSDGTTILGADDKAGLAAMLEVLQVIKEQQIPHGQIQFVITVGEESGLIGAKELNSELLDADFGYAIDASADVGTTVVGAPTQMLISAKIIGKTAHASTPKEGVSAINIAAKAISRMKLGQVDEITTANIGKFHGGSATNIVADEVILEAEARSHDPERIKTQVKHMTDVFETTASELGGKAEVTVEQSYPGFKINDNEAVVKIAQESARNLGLSANTIISGGGSDGSIINTFGIPSVILGVGYEKIHTTNERMPIKSLNLLASQVLEIIKIVARQSK | not soluble
GSMDYKDDDDKKTNWLKRIYRVRPCVKCKVAPRDWKVKNKHLRIFNMCKTCFNNSIDIGDDTYHGHVDWLMYADSKEISNT | soluble
FVEAIHAAEERVWITSPYFIPDEAVTAALTLAVLRGVDVRLLLPSRPDHYVVYAASSLYAFDAVRAGVRVFRYEPGFLHQKVVLVDNDITAIGSANLDNRSFRLNFELMLLTVDSDFSSQVESMLTADFNLAREISVQ | not soluble
MGKNKTAYVCQECGYKSVKWLGKCPSCGEWNTLVEEFEPQSFSLVKKEPSLVLPVTDWEKEEHERETTGFESLDNALGGGLVKGQVILIAGEPGIGKSTLLLQISDRVANGKKVLYVSGEESGTQIALRAKRLGINNENLLVYPEVNLEKILQTLEKEKPSLLVLDSVQTIFSERLESSAGSVSQVREVTYRITEFCKEKNVPAFIVGQITKEGSIAGPKVLEHIVDTVLQFEGERFNFYRIVKVIKNRFGSTGEIAVFKMTDKGLEEVPEPSAFFISEKANAPGSVVFPHTEGSKPVLLEVQALVIPALYTTPQRRTQGFDPNRLALILAVLEKEAKIFTRDQDVFVNVAGGMSVKEPAADLAVAMAVVSSKKEKEVPKDFVIFGEVGLSGEIRAVHFGDLRLKEAKRFGFKKALIPKSLEIEIDGMEIYPVSHIQEAIEVLF | soluble
PLRDVLDSNEFRDSKATLPIALGKDISGKPVIVDLAKMPHLLVAGSTGSGKSVGVNTMILSLLYRVQPEDVKFIMIDPKVVELSVYNDIPHLLTPVVTDMKKAANALRWCVDEMERRYQLLSALRVRNIEGFNEKIDEYEAMGMPVPNPIWRLGDTMDAMPPALKKLSYIVVIVDEFADLMMVAGKQIEELIARLAQKARAIGIHLILATQRPSV | not soluble
MKITHCKLKKEVQKEPLRSFVPEVTARSAADILGIHPDSAALFYRKIRTVTNHRLALAADEVFECPAGPGASCFGVRRKGRRGRGAAGKAVVFGIPKRNGRAYTVAEDDAEPETLPPAVKKKIMPDGIVYADSPGSRGKSDAGGFTRCRINRSKEFADRRNHINGIGNFWNQAKRALRKYNGIDRKPFPPLLRECEFRFNFGTPSRQLKILRDRCGILEHHHHHH | soluble
TKEHRAAARKIAGESFVLLKNEGLSPTLAPVLPLSPTGTIAVIGPLANTRSNMPGTWSVAAVLDKSPSLVEGLTEWVGNQGKILYAKGSNLIGDAAYEERATMFGRSLNRDNRTDQQLLDEALKIASQADVIVAALGESSEMSGESSSRTNLNLPDVQHTLLEALLKTGKPVVLVLFTGRPLVLNWEQEHVPAILNVWFGGSEAGPAIGDVLFGAVNPGGKLTMTFPKSVGQIPLYYAHKNTGRPLKEGKWFEKFRSNYLDVDNDALYPFGYGLSYTTF | not soluble
MGSDKIHHHHHHMSRMIRFHKFGAADVLRCEEQAEPSPAADEVQIRVEAVGVSWYDVLWRQNLAPSQARLPAGIGHEMAGVVTAVGEGVDDIAVGDRVASFPATSANDHPVYGDVIVLPRTAITRYPNVLTPIEASVHYTPLLIAYFAYVDLARAKAGQTALVTDASHCAGPAFVQLGRALGLKVFAATKEAAQRDYLLGLGADKVIVTEEQDLLLQIGKYTDGRGVDMVLDGMGGPQMSLLGDVLAPRGSLVLYGLQGGNQTPFPACAAFQKNIQFYVHCIGNFTGKPELGISQDQVALQRALRDINQFTADQLLTPQIIKVYPFEQVVEAHRYMDQCPCGGRVVLDMAQH | not soluble
MKKQKSFPMSAYEDLLGKITAPTITVENWEGILAFCDMINNDFEGSKTGIKSLRKRLNNRDPHVVLLAISVLDSCWANCEERFRKEVSSAQFINELKALCTSSQRQVAEKMRLTVQKWVDTECKTEQSLSLIVTLHKNLVADGYSFVVDDPKSKTKAIDAKFANDPNYVGSAQEEEAIAKAIAASLADAEKQEKAKKSTSTMYPSAKASSPAVQTNSNIPEKNVRALYDFEAAESNELSFVAGDIITITDESNPHWWTGRIGTQQGLFPSSFVTNQLDDLKSKETDSSQKAPEVVASINEAILVRCLQVLHECDPTGERQDPEDLAQLEAASYAQGNLIDAHLASIDRQSNSLAQIDVAIRDVLALYDDAIQKGGFQHQSQGMYQQPMQQYNYQQPPNRAYYPPTGPVQQQQPQQYPPQHYPAPGAQPQYACPPNSVPQPQQQQQQWPAPSSQPQQY | not soluble
INFPILDEPLVLSNATILTIEDVSVYSSLVKHFYQYDVDEHLKLFDDKQKSLKATELMLVTDILGYDVNSAPILKLIHGDLENQFNEKPEVKSMVEKLAATITELIAFECLENELDLEYDEIKILELIKALGVKIETQSDTIFEKCFEIIQVYHYLTKKNLLVFVNSGAYLTKDEVIKLCEYINLMQKSVLFLEPRRLYDLPQYVIDKDYFLIGEN | not soluble
MTTPSMEMYIEQIYMLIEEKGYARVSDIAEALAVHPSSVTKMVQKLDKDEYLIYEKYRGLVLTSKGKKIGKRLVYRHELLEQFLRIIGVDEEKIYNDVEGIEHHLSWNSIDRIGDLVQYFEEDDARKKDLKSIQKKTEHHNQ | soluble
MAHHHHHHMLCAGKGRVEATQDVARQFLRKCVERLEKNEKDMAVKFDITMTMVSLRCADQCCDLLKPGASYEKMMMGSSPVYGPCLLGLETKVHKTASECVSSFDAGLKNAKEDKEIVAAFFVLKTIKKTGAEEEVHLSSLCIALCGETVAHKTDIRDKAASSPHRLFRYAVDGACVTVSGLWIVSKDVDAREGLEVERKMREVKNQPPRSGNVKRFVDYTYKEIMRQKEKLESATGSEKKTREAQIERMEEMVKDAKELLTSPENTRPKGYSMGR | not soluble
MGSDKIHHHHHHMKEPTIVKKEAFQAIGISITTTNEKEASTEGKIPGLWNRYFHEQIMHHIPNQQTKETFAFYSNYESDETGTYQFTIGMPVSSLEDVPENMTTLTIPAATYAVFTTRKGPVAEVVCEAWEYIWKWSKGNKRAFTIDFELYDEKATDPNNAQLDIYIALA | not soluble
AHHHHHHGSEIKYRPEELTKLPRSVEYREGKVYMINQRLLPREFKVEEFTTVEAVAEAIKNMTVRGAPAIGAAAAFGLALYAETSKAKTKDEFFDGFYRAYETLKNTRPTAVNLFWALNRIKKLVEEHREDSLDEIKRLIVEEAQKIADEDVEANLRMGHYGAEVLPEGNILTHCNAGSLATVHLGTVGAVVRVMHKEGTLKLLWLDETRPVLQGARLSAWEYSYDGLNVKLIADNAAAFVMQQGKVDAIIVGADRIVANGDFANKIGTYMLAVLAKEHGIPFFTVAPLSSIDMSLSSGKEIPIEERSPEEVLTCGGCRIAPDVPVYNPAFDVTPHKYLTGIITDRGVVWPPFKRNLKKLFETL | soluble
